Source: patent US20220202905A1, “COMPOSITION FOR PREVENTING OR TREATING NEUROTROPHIC KERATITIS WHICH CONTAINS PACAP PEPTIDE OR STABILIZED PACAP PEPTIDE” (SENJU PHARMACEUTICAL CO., LTD., priority 2019, published 2022)
Square brackets hold non-standard residues; d marks the D form. Ala(1H-tetrazol-5-yl) = N[C@@H](Cc1nnn[nH]1)C(=O)O

T1: PAC1 receptor (UniProt P41586 21-468, limits assumed)
T1 sequence (looked up): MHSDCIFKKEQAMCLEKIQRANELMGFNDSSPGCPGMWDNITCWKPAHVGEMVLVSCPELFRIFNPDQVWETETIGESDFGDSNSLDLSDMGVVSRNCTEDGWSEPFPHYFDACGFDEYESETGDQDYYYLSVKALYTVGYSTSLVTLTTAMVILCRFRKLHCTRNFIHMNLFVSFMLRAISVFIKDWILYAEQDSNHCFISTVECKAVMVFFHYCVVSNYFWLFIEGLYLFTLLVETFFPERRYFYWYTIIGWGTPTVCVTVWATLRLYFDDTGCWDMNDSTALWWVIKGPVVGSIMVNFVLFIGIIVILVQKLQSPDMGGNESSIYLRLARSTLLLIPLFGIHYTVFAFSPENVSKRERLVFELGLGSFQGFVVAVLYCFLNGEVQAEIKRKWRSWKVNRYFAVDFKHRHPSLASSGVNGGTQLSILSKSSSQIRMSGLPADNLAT

T2: VPAC1 receptor (UniProt P32241 31-457, limits assumed)
T2 sequence (looked up): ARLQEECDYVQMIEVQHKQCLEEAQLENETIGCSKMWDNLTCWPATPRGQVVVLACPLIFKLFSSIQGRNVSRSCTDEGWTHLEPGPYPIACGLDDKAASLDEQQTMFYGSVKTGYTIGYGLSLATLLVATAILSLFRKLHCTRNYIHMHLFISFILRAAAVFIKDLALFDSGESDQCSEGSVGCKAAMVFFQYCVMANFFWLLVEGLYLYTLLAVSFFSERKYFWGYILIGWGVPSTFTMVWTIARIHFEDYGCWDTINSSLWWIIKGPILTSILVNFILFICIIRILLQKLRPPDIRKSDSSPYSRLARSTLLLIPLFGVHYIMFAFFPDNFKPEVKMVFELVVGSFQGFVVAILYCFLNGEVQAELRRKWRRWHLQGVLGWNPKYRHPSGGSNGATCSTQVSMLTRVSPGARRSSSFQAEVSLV

B1: Peptide 26 (peptide)
peptide: Ac-HS[Ala(1H-tetrazol-5-yl)]GIFT[Ala(1H-tetrazol-5-yl)]AYSRYRKALAVKKYLAAVL-NH2
SMILES: CC[C@H](C)[C@H](NC(=O)CNC(=O)[C@H](Cc1nnn[nH]1)NC(=O)[C@H](CO)NC(=O)[C@H](Cc1c[nH]cn1)NC(C)=O)C(=O)N[C@@H](Cc1ccccc1)C(=O)N[C@H](C(=O)N[C@@H](Cc1nnn[nH]1)C(=O)N[C@@H](C)C(=O)N[C@@H](Cc1ccc(O)cc1)C(=O)N[C@@H](CO)C(=O)N[C@@H](CCCNC(=N)N)C(=O)N[C@@H](Cc1ccc(O)cc1)C(=O)N[C@@H](CCCNC(=N)N)C(=O)N[C@@H](CCCCN)C(=O)N[C@@H](C)C(=O)N[C@@H](CC(C)C)C(=O)N[C@@H](C)C(=O)N[C@H](C(=O)N[C@@H](CCCCN)C(=O)N[C@@H](CCCCN)C(=O)N[C@@H](Cc1ccc(O)cc1)C(=O)N[C@@H](CC(C)C)C(=O)N[C@@H](C)C(=O)N[C@@H](C)C(=O)N[C@H](C(=O)N[C@@H](CC(C)C)C(N)=O)C(C)C)C(C)C)[C@@H](C)O
B2: Peptide 24 (peptide)
peptide: Ac-HA[Ala(1H-tetrazol-5-yl)]GIFT[Ala(1H-tetrazol-5-yl)]AYSRYRKQLAVKKYLAAVL-NH2
SMILES: CC[C@H](C)[C@H](NC(=O)CNC(=O)[C@H](Cc1nnn[nH]1)NC(=O)[C@H](C)NC(=O)[C@H](Cc1c[nH]cn1)NC(C)=O)C(=O)N[C@@H](Cc1ccccc1)C(=O)N[C@H](C(=O)N[C@@H](Cc1nnn[nH]1)C(=O)N[C@@H](C)C(=O)N[C@@H](Cc1ccc(O)cc1)C(=O)N[C@@H](CO)C(=O)N[C@@H](CCCNC(=N)N)C(=O)N[C@@H](Cc1ccc(O)cc1)C(=O)N[C@@H](CCCNC(=N)N)C(=O)N[C@@H](CCCCN)C(=O)N[C@@H](CCC(N)=O)C(=O)N[C@@H](CC(C)C)C(=O)N[C@@H](C)C(=O)N[C@H](C(=O)N[C@@H](CCCCN)C(=O)N[C@@H](CCCCN)C(=O)N[C@@H](Cc1ccc(O)cc1)C(=O)N[C@@H](CC(C)C)C(=O)N[C@@H](C)C(=O)N[C@@H](C)C(=O)N[C@H](C(=O)N[C@@H](CC(C)C)C(N)=O)C(C)C)C(C)C)[C@@H](C)O
B3: Peptide 23 (peptide)
peptide: HSXAIFTXSYSRYRKQLAVKKYLAAVL
modifications: N-terminal acetyl (Ac-); Tz (aspartic acid with carboxyl group replaced by tetrazole) at positions 3 and 8; C-terminal amide (NH2)
B4: Peptide 25 (peptide)
peptide: Ac-HA[Ala(1H-tetrazol-5-yl)]GIFT[Ala(1H-tetrazol-5-yl)]SYSRYRKQAAVKKYLAAVL-NH2
SMILES: CC[C@H](C)[C@H](NC(=O)CNC(=O)[C@H](Cc1nnn[nH]1)NC(=O)[C@H](C)NC(=O)[C@H](Cc1c[nH]cn1)NC(C)=O)C(=O)N[C@@H](Cc1ccccc1)C(=O)N[C@H](C(=O)N[C@@H](Cc1nnn[nH]1)C(=O)N[C@@H](CO)C(=O)N[C@@H](Cc1ccc(O)cc1)C(=O)N[C@@H](CO)C(=O)N[C@@H](CCCNC(=N)N)C(=O)N[C@@H](Cc1ccc(O)cc1)C(=O)N[C@@H](CCCNC(=N)N)C(=O)N[C@@H](CCCCN)C(=O)N[C@@H](CCC(N)=O)C(=O)N[C@@H](C)C(=O)N[C@@H](C)C(=O)N[C@H](C(=O)N[C@@H](CCCCN)C(=O)N[C@@H](CCCCN)C(=O)N[C@@H](Cc1ccc(O)cc1)C(=O)N[C@@H](CC(C)C)C(=O)N[C@@H](C)C(=O)N[C@@H](C)C(=O)N[C@H](C(=O)N[C@@H](CC(C)C)C(N)=O)C(C)C)C(C)C)[C@@H](C)O
B5: Peptide 18 (peptide)
peptide: HSXGIFTXSYSRYRKQAAVKKYLAAVL
modifications: N-terminal acetyl (Ac-); Tz (aspartic acid with carboxyl group replaced by tetrazole) at positions 3 and 8; C-terminal amide (NH2)
B6: Peptide 20 (peptide)
peptide: HSXGIFTXSYSRYRKQLAVKKYLAAVA
modifications: N-terminal acetyl (Ac-); Tz (aspartic acid with carboxyl group replaced by tetrazole) at positions 3 and 8; C-terminal amide (NH2)
B7: Peptide 21 (peptide)
peptide: Ac-HS[Ala(1H-tetrazol-5-yl)]GIFT[Ala(1H-tetrazol-5-yl)]SYSRYRRQLAVRRYLAAVL-NH2
SMILES: CC[C@H](C)[C@H](NC(=O)CNC(=O)[C@H](Cc1nnn[nH]1)NC(=O)[C@H](CO)NC(=O)[C@H](Cc1c[nH]cn1)NC(C)=O)C(=O)N[C@@H](Cc1ccccc1)C(=O)N[C@H](C(=O)N[C@@H](Cc1nnn[nH]1)C(=O)N[C@@H](CO)C(=O)N[C@@H](Cc1ccc(O)cc1)C(=O)N[C@@H](CO)C(=O)N[C@@H](CCCNC(=N)N)C(=O)N[C@@H](Cc1ccc(O)cc1)C(=O)N[C@@H](CCCNC(=N)N)C(=O)N[C@@H](CCCNC(=N)N)C(=O)N[C@@H](CCC(N)=O)C(=O)N[C@@H](CC(C)C)C(=O)N[C@@H](C)C(=O)N[C@H](C(=O)N[C@@H](CCCNC(=N)N)C(=O)N[C@@H](CCCNC(=N)N)C(=O)N[C@@H](Cc1ccc(O)cc1)C(=O)N[C@@H](CC(C)C)C(=O)N[C@@H](C)C(=O)N[C@@H](C)C(=O)N[C@H](C(=O)N[C@@H](CC(C)C)C(N)=O)C(C)C)C(C)C)[C@@H](C)O
B8: Peptide 22 (peptide)
peptide: Ac-HS[Ala(1H-tetrazol-5-yl)]GIFT[Ala(1H-tetrazol-5-yl)]SYSRYRRQLAVRRYLAAVLGRR-NH2
SMILES: CC[C@H](C)[C@H](NC(=O)CNC(=O)[C@H](Cc1nnn[nH]1)NC(=O)[C@H](CO)NC(=O)[C@H](Cc1c[nH]cn1)NC(C)=O)C(=O)N[C@@H](Cc1ccccc1)C(=O)N[C@H](C(=O)N[C@@H](Cc1nnn[nH]1)C(=O)N[C@@H](CO)C(=O)N[C@@H](Cc1ccc(O)cc1)C(=O)N[C@@H](CO)C(=O)N[C@@H](CCCNC(=N)N)C(=O)N[C@@H](Cc1ccc(O)cc1)C(=O)N[C@@H](CCCNC(=N)N)C(=O)N[C@@H](CCCNC(=N)N)C(=O)N[C@@H](CCC(N)=O)C(=O)N[C@@H](CC(C)C)C(=O)N[C@@H](C)C(=O)N[C@H](C(=O)N[C@@H](CCCNC(=N)N)C(=O)N[C@@H](CCCNC(=N)N)C(=O)N[C@@H](Cc1ccc(O)cc1)C(=O)N[C@@H](CC(C)C)C(=O)N[C@@H](C)C(=O)N[C@@H](C)C(=O)N[C@H](C(=O)N[C@@H](CC(C)C)C(=O)NCC(=O)N[C@@H](CCCNC(=N)N)C(=O)N[C@@H](CCCNC(=N)N)C(N)=O)C(C)C)C(C)C)[C@@H](C)O
B9: Peptide 27 (peptide)
peptide: Ac-HS[Ala(1H-tetrazol-5-yl)]GIFT[Ala(1H-tetrazol-5-yl)]AYSRYRKQAAVKKYLAAVL-NH2
SMILES: CC[C@H](C)[C@H](NC(=O)CNC(=O)[C@H](Cc1nnn[nH]1)NC(=O)[C@H](CO)NC(=O)[C@H](Cc1c[nH]cn1)NC(C)=O)C(=O)N[C@@H](Cc1ccccc1)C(=O)N[C@H](C(=O)N[C@@H](Cc1nnn[nH]1)C(=O)N[C@@H](C)C(=O)N[C@@H](Cc1ccc(O)cc1)C(=O)N[C@@H](CO)C(=O)N[C@@H](CCCNC(=N)N)C(=O)N[C@@H](Cc1ccc(O)cc1)C(=O)N[C@@H](CCCNC(=N)N)C(=O)N[C@@H](CCCCN)C(=O)N[C@@H](CCC(N)=O)C(=O)N[C@@H](C)C(=O)N[C@@H](C)C(=O)N[C@H](C(=O)N[C@@H](CCCCN)C(=O)N[C@@H](CCCCN)C(=O)N[C@@H](Cc1ccc(O)cc1)C(=O)N[C@@H](CC(C)C)C(=O)N[C@@H](C)C(=O)N[C@@H](C)C(=O)N[C@H](C(=O)N[C@@H](CC(C)C)C(N)=O)C(C)C)C(C)C)[C@@H](C)O
B10: Peptide 19 (peptide)
peptide: HSXGIFTXSYSRYRKQLAAKKYLAAVL
modifications: N-terminal acetyl (Ac-); Tz (aspartic acid with carboxyl group replaced by tetrazole) at positions 3 and 8; C-terminal amide (NH2)
B11: Peptide 28 (peptide)
peptide: Ac-HS[Ala(1H-tetrazol-5-yl)]GIFT[Ala(1H-tetrazol-5-yl)]SYSRYRKAAAVKKYLAAVL-NH2
SMILES: CC[C@H](C)[C@H](NC(=O)CNC(=O)[C@H](Cc1nnn[nH]1)NC(=O)[C@H](CO)NC(=O)[C@H](Cc1c[nH]cn1)NC(C)=O)C(=O)N[C@@H](Cc1ccccc1)C(=O)N[C@H](C(=O)N[C@@H](Cc1nnn[nH]1)C(=O)N[C@@H](CO)C(=O)N[C@@H](Cc1ccc(O)cc1)C(=O)N[C@@H](CO)C(=O)N[C@@H](CCCNC(=N)N)C(=O)N[C@@H](Cc1ccc(O)cc1)C(=O)N[C@@H](CCCNC(=N)N)C(=O)N[C@@H](CCCCN)C(=O)N[C@@H](C)C(=O)N[C@@H](C)C(=O)N[C@@H](C)C(=O)N[C@H](C(=O)N[C@@H](CCCCN)C(=O)N[C@@H](CCCCN)C(=O)N[C@@H](Cc1ccc(O)cc1)C(=O)N[C@@H](CC(C)C)C(=O)N[C@@H](C)C(=O)N[C@@H](C)C(=O)N[C@H](C(=O)N[C@@H](CC(C)C)C(N)=O)C(C)C)C(C)C)[C@@H](C)O

Tests used:
PAC1 receptor = target: T1, PAC1 receptor; test: cell-based or functional assay
VPAC1 receptor = target: T2, VPAC1 receptor; test: cell-based or functional assay

| Binder | EC50 (PAC1R), cAMP inducing effect (PAC1 receptor) | EC50 (VPAC1R), cAMP inducing effect (VPAC1 receptor) |
| --- | --- | --- |
| B1 | 0.066 nM | 0.075 nM |
| B2 | 0.083 nM | 0.088 nM |
| B3 | 0.079 nM | 0.072 nM |
| B4 | 0.088 nM | 0.028 nM |
| B5 | 0.061 nM | 0.033 nM |
| B6 | 0.08 nM | 0.04 nM |
| B7 | 0.102 nM | 0.268 nM |
| B8 | 0.13 nM | 0.457 nM |
| B9 | 0.06 nM | 0.044 nM |
| B10 | 0.094 nM | 0.044 nM |
| B11 | 0.084 nM | 0.029 nM |
